Test results taken from patent US12679878B2, “CRF2 receptor agonists and their use in therapy” (SANOFI, priority 2020, dated 2026).
Starred links: 1 amine or outer side, 2 acyl side, 3 side chain; linkers in the order of their positions; H or OH if unused. Non-standard residues stand in square brackets, D forms with d. Groups on a side chain read outwards from the residue. No end group written: not given here. *: point of attachment. C18 diacid = O=C(O)CCCCCCCCCCCCCCCCC(=O)*; γGlu = O=C(O)[C@H](CCC(=O)[*:2])N[*:1]; AEEA = NCCOCCOCC(=O)O; Aib = CC(C)(N)C(=O)O

Molecular target: human corticotropin-releasing factor 2α (CRF2 α receptor) (human), Q13324
Sequence (Q13324 20-411): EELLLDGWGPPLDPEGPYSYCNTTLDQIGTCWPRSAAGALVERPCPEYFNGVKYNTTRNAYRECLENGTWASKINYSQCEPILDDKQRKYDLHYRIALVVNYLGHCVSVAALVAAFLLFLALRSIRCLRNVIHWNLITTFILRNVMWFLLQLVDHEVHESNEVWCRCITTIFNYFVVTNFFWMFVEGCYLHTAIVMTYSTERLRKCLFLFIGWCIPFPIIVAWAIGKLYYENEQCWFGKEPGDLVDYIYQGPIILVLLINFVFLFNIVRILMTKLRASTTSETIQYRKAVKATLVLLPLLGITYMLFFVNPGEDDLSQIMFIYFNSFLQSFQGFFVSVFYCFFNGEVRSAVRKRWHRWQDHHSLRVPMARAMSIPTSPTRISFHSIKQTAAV
Experiment: cell-based or functional assay

EC50 [nM], 0% HSA [nM] | EC50 [nM], 0.1% HSA [nM] | Binder
0.04 | 1.48 | IVLSLD[dV]PIKLK([AEEA-AEEA-γGlu-C18 diacid])QILLKQERQK[Aib]QRQQAEKNKQILAQV-NH2 (N-terminus assumed; SMILES CC[C@H](C)[C@H](N)C(=O)N[C@H](C(=O)N[C@@H](CC(C)C)C(=O)N[C@@H](CO)C(=O)N[C@@H](CC(C)C)C(=O)N[C@@H](CC(=O)O)C(=O)N[C@@H](C(=O)N1CCC[C@H]1C(=O)N[C@H](C(=O)N[C@@H](CCCCN)C(=O)N[C@@H](CC(C)C)C(=O)N[C@@H](CCCCNC(=O)COCCOCCNC(=O)COCCOCCNC(=O)CC[C@H](NC(=O)CCCCCCCCCCCCCCCCC(=O)O)C(=O)O)C(=O)N[C@@H](CCC(N)=O)C(=O)N[C@H](C(=O)N[C@@H](CC(C)C)C(=O)N[C@@H](CC(C)C)C(=O)N[C@@H](CCCCN)C(=O)N[C@@H](CCC(N)=O)C(=O)N[C@@H](CCC(=O)O)C(=O)N[C@@H](CCCNC(=N)N)C(=O)N[C@@H](CCC(N)=O)C(=O)N[C@@H](CCCCN)C(=O)NC(C)(C)C(=O)N[C@@H](CCC(N)=O)C(=O)N[C@@H](CCCNC(=N)N)C(=O)N[C@@H](CCC(N)=O)C(=O)N[C@@H](CCC(N)=O)C(=O)N[C@@H](C)C(=O)N[C@@H](CCC(=O)O)C(=O)N[C@@H](CCCCN)C(=O)N[C@@H](CC(N)=O)C(=O)N[C@@H](CCCCN)C(=O)N[C@@H](CCC(N)=O)C(=O)N[C@H](C(=O)N[C@@H](CC(C)C)C(=O)N[C@@H](C)C(=O)N[C@@H](CCC(N)=O)C(=O)N[C@H](C(N)=O)C(C)C)[C@@H](C)CC)[C@@H](C)CC)[C@@H](C)CC)C(C)C)C(C)C) [SEQ ID NO: 135]
0.11 | 2.44 | IVLSLD[dV]PIKLK([AEEA-AEEA-γGlu-C18 diacid])QILLEQERQK[Aib]QRQQAEKNKQILAQV-NH2 (N-terminus assumed; SMILES CC[C@H](C)[C@H](N)C(=O)N[C@H](C(=O)N[C@@H](CC(C)C)C(=O)N[C@@H](CO)C(=O)N[C@@H](CC(C)C)C(=O)N[C@@H](CC(=O)O)C(=O)N[C@@H](C(=O)N1CCC[C@H]1C(=O)N[C@H](C(=O)N[C@@H](CCCCN)C(=O)N[C@@H](CC(C)C)C(=O)N[C@@H](CCCCNC(=O)COCCOCCNC(=O)COCCOCCNC(=O)CC[C@H](NC(=O)CCCCCCCCCCCCCCCCC(=O)O)C(=O)O)C(=O)N[C@@H](CCC(N)=O)C(=O)N[C@H](C(=O)N[C@@H](CC(C)C)C(=O)N[C@@H](CC(C)C)C(=O)N[C@@H](CCC(=O)O)C(=O)N[C@@H](CCC(N)=O)C(=O)N[C@@H](CCC(=O)O)C(=O)N[C@@H](CCCNC(=N)N)C(=O)N[C@@H](CCC(N)=O)C(=O)N[C@@H](CCCCN)C(=O)NC(C)(C)C(=O)N[C@@H](CCC(N)=O)C(=O)N[C@@H](CCCNC(=N)N)C(=O)N[C@@H](CCC(N)=O)C(=O)N[C@@H](CCC(N)=O)C(=O)N[C@@H](C)C(=O)N[C@@H](CCC(=O)O)C(=O)N[C@@H](CCCCN)C(=O)N[C@@H](CC(N)=O)C(=O)N[C@@H](CCCCN)C(=O)N[C@@H](CCC(N)=O)C(=O)N[C@H](C(=O)N[C@@H](CC(C)C)C(=O)N[C@@H](C)C(=O)N[C@@H](CCC(N)=O)C(=O)N[C@H](C(N)=O)C(C)C)[C@@H](C)CC)[C@@H](C)CC)[C@@H](C)CC)C(C)C)C(C)C) [SEQ ID NO: 131]
0.07 | 3.44 | IVLSLD[dV]PIKLK([AEEA-AEEA-γGlu-C18 diacid])QILLKQERQK[Aib]QREKAEKNKQILAQV-NH2 (N-terminus assumed; SMILES CC[C@H](C)[C@H](N)C(=O)N[C@H](C(=O)N[C@@H](CC(C)C)C(=O)N[C@@H](CO)C(=O)N[C@@H](CC(C)C)C(=O)N[C@@H](CC(=O)O)C(=O)N[C@@H](C(=O)N1CCC[C@H]1C(=O)N[C@H](C(=O)N[C@@H](CCCCN)C(=O)N[C@@H](CC(C)C)C(=O)N[C@@H](CCCCNC(=O)COCCOCCNC(=O)COCCOCCNC(=O)CC[C@H](NC(=O)CCCCCCCCCCCCCCCCC(=O)O)C(=O)O)C(=O)N[C@@H](CCC(N)=O)C(=O)N[C@H](C(=O)N[C@@H](CC(C)C)C(=O)N[C@@H](CC(C)C)C(=O)N[C@@H](CCCCN)C(=O)N[C@@H](CCC(N)=O)C(=O)N[C@@H](CCC(=O)O)C(=O)N[C@@H](CCCNC(=N)N)C(=O)N[C@@H](CCC(N)=O)C(=O)N[C@@H](CCCCN)C(=O)NC(C)(C)C(=O)N[C@@H](CCC(N)=O)C(=O)N[C@@H](CCCNC(=N)N)C(=O)N[C@@H](CCC(=O)O)C(=O)N[C@@H](CCCCN)C(=O)N[C@@H](C)C(=O)N[C@@H](CCC(=O)O)C(=O)N[C@@H](CCCCN)C(=O)N[C@@H](CC(N)=O)C(=O)N[C@@H](CCCCN)C(=O)N[C@@H](CCC(N)=O)C(=O)N[C@H](C(=O)N[C@@H](CC(C)C)C(=O)N[C@@H](C)C(=O)N[C@@H](CCC(N)=O)C(=O)N[C@H](C(N)=O)C(C)C)[C@@H](C)CC)[C@@H](C)CC)[C@@H](C)CC)C(C)C)C(C)C) [SEQ ID NO: 134]
0.09 | 3.19 | IVLSLD[dV]PIKLK([AEEA-AEEA-γGlu-C18 diacid])QILLKQERQK[Aib]QREQAEKNKQILERV-NH2 (N-terminus assumed; SMILES CC[C@H](C)[C@H](N)C(=O)N[C@H](C(=O)N[C@@H](CC(C)C)C(=O)N[C@@H](CO)C(=O)N[C@@H](CC(C)C)C(=O)N[C@@H](CC(=O)O)C(=O)N[C@@H](C(=O)N1CCC[C@H]1C(=O)N[C@H](C(=O)N[C@@H](CCCCN)C(=O)N[C@@H](CC(C)C)C(=O)N[C@@H](CCCCNC(=O)COCCOCCNC(=O)COCCOCCNC(=O)CC[C@H](NC(=O)CCCCCCCCCCCCCCCCC(=O)O)C(=O)O)C(=O)N[C@@H](CCC(N)=O)C(=O)N[C@H](C(=O)N[C@@H](CC(C)C)C(=O)N[C@@H](CC(C)C)C(=O)N[C@@H](CCCCN)C(=O)N[C@@H](CCC(N)=O)C(=O)N[C@@H](CCC(=O)O)C(=O)N[C@@H](CCCNC(=N)N)C(=O)N[C@@H](CCC(N)=O)C(=O)N[C@@H](CCCCN)C(=O)NC(C)(C)C(=O)N[C@@H](CCC(N)=O)C(=O)N[C@@H](CCCNC(=N)N)C(=O)N[C@@H](CCC(=O)O)C(=O)N[C@@H](CCC(N)=O)C(=O)N[C@@H](C)C(=O)N[C@@H](CCC(=O)O)C(=O)N[C@@H](CCCCN)C(=O)N[C@@H](CC(N)=O)C(=O)N[C@@H](CCCCN)C(=O)N[C@@H](CCC(N)=O)C(=O)N[C@H](C(=O)N[C@@H](CC(C)C)C(=O)N[C@@H](CCC(=O)O)C(=O)N[C@@H](CCCNC(=N)N)C(=O)N[C@H](C(N)=O)C(C)C)[C@@H](C)CC)[C@@H](C)CC)[C@@H](C)CC)C(C)C)C(C)C) [SEQ ID NO: 133]
0.05 | 2.41 | IVLSLD[dV]PIKLK([AEEA-AEEA-γGlu-C18 diacid])QILLKQERQKK[Aib]RQKAEKNKQILAQV-NH2 (N-terminus assumed; SMILES CC[C@H](C)[C@H](N)C(=O)N[C@H](C(=O)N[C@@H](CC(C)C)C(=O)N[C@@H](CO)C(=O)N[C@@H](CC(C)C)C(=O)N[C@@H](CC(=O)O)C(=O)N[C@@H](C(=O)N1CCC[C@H]1C(=O)N[C@H](C(=O)N[C@@H](CCCCN)C(=O)N[C@@H](CC(C)C)C(=O)N[C@@H](CCCCNC(=O)COCCOCCNC(=O)COCCOCCNC(=O)CC[C@H](NC(=O)CCCCCCCCCCCCCCCCC(=O)O)C(=O)O)C(=O)N[C@@H](CCC(N)=O)C(=O)N[C@H](C(=O)N[C@@H](CC(C)C)C(=O)N[C@@H](CC(C)C)C(=O)N[C@@H](CCCCN)C(=O)N[C@@H](CCC(N)=O)C(=O)N[C@@H](CCC(=O)O)C(=O)N[C@@H](CCCNC(=N)N)C(=O)N[C@@H](CCC(N)=O)C(=O)N[C@@H](CCCCN)C(=O)N[C@@H](CCCCN)C(=O)NC(C)(C)C(=O)N[C@@H](CCCNC(=N)N)C(=O)N[C@@H](CCC(N)=O)C(=O)N[C@@H](CCCCN)C(=O)N[C@@H](C)C(=O)N[C@@H](CCC(=O)O)C(=O)N[C@@H](CCCCN)C(=O)N[C@@H](CC(N)=O)C(=O)N[C@@H](CCCCN)C(=O)N[C@@H](CCC(N)=O)C(=O)N[C@H](C(=O)N[C@@H](CC(C)C)C(=O)N[C@@H](C)C(=O)N[C@@H](CCC(N)=O)C(=O)N[C@H](C(N)=O)C(C)C)[C@@H](C)CC)[C@@H](C)CC)[C@@H](C)CC)C(C)C)C(C)C) [SEQ ID NO: 136]
0.38 | 8.76 | IVLSLD[dV]PIKLK([AEEA-AEEA-γGlu-C18 diacid])QILLEQERQK[Aib]QREQAEKNKQILERV-NH2 (N-terminus assumed; SMILES CC[C@H](C)[C@H](N)C(=O)N[C@H](C(=O)N[C@@H](CC(C)C)C(=O)N[C@@H](CO)C(=O)N[C@@H](CC(C)C)C(=O)N[C@@H](CC(=O)O)C(=O)N[C@@H](C(=O)N1CCC[C@H]1C(=O)N[C@H](C(=O)N[C@@H](CCCCN)C(=O)N[C@@H](CC(C)C)C(=O)N[C@@H](CCCCNC(=O)COCCOCCNC(=O)COCCOCCNC(=O)CC[C@H](NC(=O)CCCCCCCCCCCCCCCCC(=O)O)C(=O)O)C(=O)N[C@@H](CCC(N)=O)C(=O)N[C@H](C(=O)N[C@@H](CC(C)C)C(=O)N[C@@H](CC(C)C)C(=O)N[C@@H](CCC(=O)O)C(=O)N[C@@H](CCC(N)=O)C(=O)N[C@@H](CCC(=O)O)C(=O)N[C@@H](CCCNC(=N)N)C(=O)N[C@@H](CCC(N)=O)C(=O)N[C@@H](CCCCN)C(=O)NC(C)(C)C(=O)N[C@@H](CCC(N)=O)C(=O)N[C@@H](CCCNC(=N)N)C(=O)N[C@@H](CCC(=O)O)C(=O)N[C@@H](CCC(N)=O)C(=O)N[C@@H](C)C(=O)N[C@@H](CCC(=O)O)C(=O)N[C@@H](CCCCN)C(=O)N[C@@H](CC(N)=O)C(=O)N[C@@H](CCCCN)C(=O)N[C@@H](CCC(N)=O)C(=O)N[C@H](C(=O)N[C@@H](CC(C)C)C(=O)N[C@@H](CCC(=O)O)C(=O)N[C@@H](CCCNC(=N)N)C(=O)N[C@H](C(N)=O)C(C)C)[C@@H](C)CC)[C@@H](C)CC)[C@@H](C)CC)C(C)C)C(C)C) [SEQ ID NO: 132]
